# ± gives the standard deviation of the averaged measurements.
# Assay: total protein half-life in vivo (active degradation + dilution); higher = more stable protein
# [1] = E. coli NCM3722 delta-clpP delta-lon delta-hslV, growth: N-lim chemostat, doubling time 6 h
# [2] = E. coli NCM3722 delta-hslV, growth: N-lim chemostat, doubling time 6 h
# [3] = E. coli NCM3722 delta-smpB, growth: N-lim chemostat, doubling time 6 h
# [4] = wild type E. coli NCM3722, growth: C-lim chemostat, doubling time 3 h
# [5] = wild type E. coli NCM3722, growth: C-lim chemostat, doubling time 6 h
# [6] = wild type E. coli NCM3722, growth: C-lim chemostat, doubling time 12 h
# [7] = wild type E. coli NCM3722, growth: N-lim chemostat, doubling time 6 h
# [8] = wild type E. coli NCM3722, growth: N-lim chemostat, doubling time 12 h
# [9] = wild type E. coli NCM3722, growth: P-lim chemostat, doubling time 6 h
# [10] = wild type E. coli NCM3722, growth: P-lim chemostat, doubling time 12 h
# [11] = E. coli NCM3722 delta-lon, growth: N-lim chemostat, doubling time 6 h
# [12] = E. coli NCM3722 delta-clpP, growth: N-lim chemostat, doubling time 6 h
Sequence,total protein half-life in vivo [1] [h],total protein half-life in vivo [2] [h],total protein half-life in vivo [3] [h],total protein half-life in vivo [4] [h],total protein half-life in vivo [5] [h],total protein half-life in vivo [6] [h],total protein half-life in vivo [7] [h],total protein half-life in vivo [8] [h],total protein half-life in vivo [9] [h],total protein half-life in vivo [10] [h],total protein half-life in vivo [11] [h],total protein half-life in vivo [12] [h]
MDIPRIFTISESEHRIHNPFTEEKYATLGRVLRMKPGTRILDLGSGSGEMLCTWARDHGITGTGIDMSSLFTAQAKRRAEELGVSERVHFIHNDAAGYVANEKCDVAACVGATWIAGGFAGAEELLAQSLKPGGIMLIGEPYWRQLPATEEIAQACGVSSTSDFLTLPGLVGAFDDLGYDVVEMVLADQEGWDRYEAAKWLTMRRWLEANPDDDFAAEVRAELNIAPKRYVTYARECFGWGVFALIAR,5.64 ± 0.16,5.71 ± 1.8,3.54 ± 0.12,2.7 ± 0.65,4.93 ± 0.38,9.89 ± 1.2,3.97,8.49,7.11,12.41 ± 0.083,,
MDKELPWLADNAQLELKYKKGKTPLSHRRWPGEPVSVITGSLIQTLGDELLQKAEKKKNIVWRYENFSLEWQSAITQAINLIGEHKPSIPARTMAALACIAQNDSQQLLDEIVQQEGLEYATEVVIARQFIARCYESDPLVVTLQYQDEDYGYGYRSETYNEFDLRLRKHLSLAEESCWQRCADKLIAALPGINKVRRPFIALILPEKPEIANELVGLECPRTHFHSKEWLKVVANDPTAVRKLEHYWSQDIFSDREASYMSHENHFGYAACAALLREQGLAAIPRLAMYAHKEDCGSLLVQINHPQVIRTLLLVADKNKPSLQRVAKYHKNFPHATLAALAELLALTEPPARPGYPIIEDKKLPAQQKARDEYWRTLLQTLMASQPQLAAEVMPWLSTQPQSVLKSYLSAPPKPVIDGTDNSNLPEILVSPPWRSKKKMTAPRLDLAPLELTPQVYWQPGEQERLAATEPARYFSTESLAQRMEQKSGRVVLQELGFGDDVWLFLNYILPGKLDAARNSLFVQWHYYQGRVEEILNGWNSPEAQLAEQALRSGHIEALINIWENDNYSHYRPEKSVWNLYLLAQLPREMALTFWLRINEKKHLFAGEDYFLSILGLDALPGLLLAFSHRPKETFPLILNFGATELALPVAHVWRRFAAQRDLARQWILQWPEHTASALIPLVFTKPSDNSEAALLALRLLYEQGHGELLQTVANRWQRTDVWSALEQLLKQGPMDIYPARIPKAPDFWHPQMWSRPRLITNNQTVTNDALEIIGEMLRFTQGGRFYSGLEQLKTFCQPQTLAAFAWDLFTAWQQAGAPAKDNWAFLALSLFGDESTARDLTTQILAWPQEGKSARAVSGLNILTLMNNDMALIQLHHISQRAKSRPLRDNAAEFLQVVAENRGLSQEELADRLVPTLGLDDPQALSFDFGPRQFTVRFDENLNPVIFDQQNVRQKSVPRLRADDDQLKAPEALARLKGLKKDATQVSKNLLPRLETALRTTRRWSLADFHSLFVNHPFTRLVTQRLIWGVYPANEPRCLLKAFRVAAEGEFCNAQDEPIDLPADALIGIAHPLEMTAEMRSEFAQLFADYEIMPPFRQLSRRTVLLTPDESTSNSLTRWEGKSATVGQLMGMRYKGWESGYEDAFVYNLGEYRLVLKFSPGFNHYNVDSKALMSFRSLRVYRDNKSVTFAELDVFDLSEALSAPDVIFH,6.38,,,,,,,,,,,
MDKFDANRRKLLALGGVALGAAILPTPAFATLSTPRPRILTLNNLHTGESIKAEFFDGRGYIQEELAKLNHFFRDYRANKIKSIDPGLFDQLYRLQGLLGTRKPVQLISGYRSIDTNNELRARSRGVAKKSYHTKGQAMDFHIEGIALSNIRKAALSMRAGGVGYYPRSNFVHIDTGPARHW [P0AB06],3.83 ± 1.1,2.76 ± 2.8,1.8 ± 0.088,0.68 ± 0.53,2.67 ± 0.29,6.36 ± 2,1.97 ± 0.11,1.81 ± 1.2,1.82 ± 0.81,2.46 ± 0.46,1 ± 0.91,
MDKIEVRGARTHNLKNINLVIPRDKLIVVTGLSGSGKSSLAFDTLYAEGQRRYVESLSAYARQFLSLMEKPDVDHIEGLSPAISIEQKSTSHNPRSTVGTITEIHDYLRLLFARVGEPRCPDHDVPLAAQTVSQMVDNVLSQPEGKRLMLLAPIIKERKGEHTKTLENLASQGYIRARIDGEVCDLSDPPKLELQKKHTIEVVVDRFKVRDDLTQRLAESFETALELSGGTAVVADMDDPKAEELLFSANFACPICGYSMRELEPRLFSFNNPAGACPTCDGLGVQQYFDPDRVIQNPELSLAGGAIRGWDRRNFYYFQMLKSLADHYKFDVEAPWGSLSANVHKVVLYGSGKENIEFKYMNDRGDTSIRRHPFEGVLHNMERRYKETESSAVREELAKFISNRPCASCEGTRLRREARHVYVENTPLPAISDMSIGHAMEFFNNLKLAGQRAKIAEKILKEIGDRLKFLVNVGLNYLTLSRSAETLSGGEAQRIRLASQIGAGLVGVMYVLDEPSIGLHQRDNERLLGTLIHLRDLGNTVIVVEHDEDAIRAADHVIDIGPGAGVHGGEVVAEGPLEAIMAVPESLTGQYMSGKRKIEVPKKRVPANPEKVLKLTGARGNNLKDVTLTLPVGLFTCITGVSGSGKSTLINDTLFPIAQRQLNGATIAEPAPYRDIQGLEHFDKVIDIDQSPIGRTPRSNPATYTGVFTPVRELFAGVPESRARGYTPGRFSFNVRGGRCEACQGDGVIKVEMHFLPDIYVPCDQCKGKRYNRETLEIKYKGKTIHEVLDMTIEEAREFFDAVPALARKLQTLMDVGLTYIRLGQSATTLSGGEAQRVKLARELSKRGTGQTLYILDEPTTGLHFADIQQLLDVLHKLRDQGNTIVVIEHNLDVIKTADWIVDLGPEGGSGGGEILVSGTPETVAECEASHTARFLKPML [P0A698],6.85 ± 0.08,6.32 ± 0.14,5.66 ± 0.51,3.21 ± 0.095,6.19 ± 0.7,12.1 ± 0.6,6.24 ± 0.3,12.7 ± 0.13,6.273 ± 0.06,13.6 ± 0.84,6.4 ± 0.084,6.52 ± 0.27
MDKKQVTDLRSELLDSRFGAKSISTIAESKRFPLHEMRDDVAFQIINDELYLDGNARQNLATFCQTWDDENVHKLMDLSINKNWIDKEEYPQSAAIDLRCVNMVADLWHAPAPKNGQAVGTNTIGSSEACMLGGMAMKWRWRKRMEAAGKPTDKPNLVCGPVQICWHKFARYWDVELREIPMRPGQLFMDPKRMIEACDENTIGVVPTFGVTYTGNYEFPQPLHDALDKFQADTGIDIDMHIDAASGGFLAPFVAPDIVWDFRLPRVKSISASGHKFGLAPLGCGWVIWRDEEALPQELVFNVDYLGGQIGTFAINFSRPAGQVIAQYYEFLRLGREGYTKVQNASYQVAAYLADEIAKLGPYEFICTGRPDEGIPAVCFKLKDGEDPGYTLYDLSERLRLRGWQVPAFTLGGEATDIVVMRIMCRRGFEMDFAELLLEDYKASLKYLSDHPKLQGIAQQNSFKHT,6.14 ± 0.21,,5.24 ± 0.19,3.41,6.25 ± 0.14,,5.7107 ± 0.00073,10.9 ± 0.24,5.97 ± 0.86,13.1 ± 0.33,6.24 ± 0.063,6.13 ± 0.6
MDKQSLHETAKRLALELPFVELCWPFGPEFDVFKIGGKIFMLSSELRGVPFINLKSDPQKSLLNQQIYPSIKPGYHMNKKHWISVYPGEEISEALLRDLINDSWNLVVDGLAKRDQKRVRPG [P0AAT2],5.54 ± 0.35,5.97 ± 0.5,5.28 ± 0.71,3.35 ± 0.7,5.17 ± 0.11,11.2 ± 0.26,4.78 ± 0.46,10.1 ± 2.1,4.72 ± 1.1,10.6 ± 0.46,6.9 ± 0.29,6.23
MDKSKRHLAWWVVGLLAVAAIVAWWLLRPAGVPEGFAVSNGRIEATEVDIASKIAGRIDTILVKEGKFVREGEVLAKMDTRVLQEQRLEAIAQIKEAQSAVAAAQALLEQRQSETRAAQSLVNQRQAELDSVAKRHTRSRSLAQRGAISAQQLDDDRAAAESARAALESAKAQVSASKAAIEAARTNIIQAQTRVEAAQATERRIAADIDDSELKAPRDGRVQYRVAEPGEVLAAGGRVLNMVDLSDVYMTFFLPTEQAGTLKLGGEARLILDAAPDLRIPATISFVASVAQFTPKTVETSDERLKLMFRVKARIPPELLQQHLEYVKTGLPGVAWVRVNEELPWPDDLVVRLPQ,7.13 ± 1.2,6.68 ± 0.17,5.93 ± 0.0093,3.27 ± 0.32,6.21 ± 0.2,13 ± 1,6.37 ± 0.43,13.5 ± 1.4,6.03 ± 0.35,12.9 ± 0.49,6.78 ± 0.59,6.23 ± 0.4
MDLLYRVKTLWAALRGNHYTWPAIDITLPGNRHFHLIGSIHMGSHDMAPLPTRLLKKLKNADALIVEADVSTSDTPFANLPACEALEERISEEQLQNLQHISQEMGISPSLFSTQPLWQIAMVLQATQAQKLGLRAEYGIDYQLLQAAKQQHKPVIELEGAENQIAMLLQLPDKGLALLDDTLTHWHTNARLLQQMMSWWLNAPPQNNDITLPNTFSQSLYDVLMHQRNLAWRDKLRAMPPGRYVVAVGALHLYGEGNLPQMLR,5.23,5.67,5.46 ± 0.086,2.97 ± 0.043,,11.5,5.74 ± 0.45,12.5,5.75 ± 0.62,10.6 ± 0.083,5.61,5.02
MDLNTLISQYGYAALVIGSLAEGETVTLLGGVAAHQGLLKFPLVVLSVALGGMIGDQVLYLCGRRFGGKLLRRFSKHQDKIERAQKLIQRHPYLFVIGTRFMYGFRVIGPTLIGASQLPPKIFLPLNILGAFAWALIFTTIGYAGGQVIAPWLHNLDQHLKHWVWLILVVVLVVGVRWWLKRRGKKKPDHQA,6.78,,,,5.72,,,10.9,6.18,13.6,,

# Source: the supplement of paper PMC11246515
